Results on two substances are retold here after publication PMC1540706.

A word on the Kd: it is the constant that tells how readily two partners part at equilibrium. Higher therefore signals a looser complex.

Experiment [1] deals with human β2-appendage (700–937) used for ITC (human) (UniProt P63010). Nature of the experiment: ITC; VP-ITC; 100 mM HEPES, 50 mM NaCl, 2 mM DTT pH 7.4 at 10 °C; peptides or proteins injected from the syringe into the cell. Background: ITC needs no label: the signal is the heat of the interaction.
Experiment [2] deals with epsinR peptide. Nature of the experiment: ITC. As to conditions: stoichiometry (1.3).

Chain of human β2-appendage (700–937) used for ITC (P63010 whole entry Y888V, looked up, tested part not stated): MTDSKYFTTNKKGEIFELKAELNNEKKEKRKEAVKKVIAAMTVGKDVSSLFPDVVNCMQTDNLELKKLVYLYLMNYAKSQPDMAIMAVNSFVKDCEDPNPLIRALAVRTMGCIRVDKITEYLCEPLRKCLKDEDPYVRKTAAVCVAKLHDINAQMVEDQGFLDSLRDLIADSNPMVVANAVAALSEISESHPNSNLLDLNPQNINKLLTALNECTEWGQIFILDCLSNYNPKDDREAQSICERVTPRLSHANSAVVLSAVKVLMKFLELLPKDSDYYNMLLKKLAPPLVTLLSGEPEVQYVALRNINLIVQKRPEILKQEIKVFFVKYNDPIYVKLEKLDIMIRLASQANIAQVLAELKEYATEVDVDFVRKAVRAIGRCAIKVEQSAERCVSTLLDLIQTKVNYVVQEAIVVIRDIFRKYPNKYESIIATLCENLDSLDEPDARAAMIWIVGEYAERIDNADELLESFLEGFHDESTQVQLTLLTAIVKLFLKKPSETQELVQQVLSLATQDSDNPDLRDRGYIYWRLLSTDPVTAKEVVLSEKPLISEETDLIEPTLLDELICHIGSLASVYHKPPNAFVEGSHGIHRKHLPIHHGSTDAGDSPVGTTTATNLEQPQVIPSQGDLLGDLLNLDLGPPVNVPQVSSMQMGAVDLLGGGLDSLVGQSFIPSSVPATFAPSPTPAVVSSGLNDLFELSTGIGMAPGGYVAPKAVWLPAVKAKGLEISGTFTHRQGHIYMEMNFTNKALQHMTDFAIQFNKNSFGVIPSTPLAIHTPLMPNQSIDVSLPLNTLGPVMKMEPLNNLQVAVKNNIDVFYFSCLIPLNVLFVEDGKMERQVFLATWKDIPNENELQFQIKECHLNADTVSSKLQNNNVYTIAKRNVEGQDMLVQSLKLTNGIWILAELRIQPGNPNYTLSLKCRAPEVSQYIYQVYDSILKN
Chain of human β2-appendage (700–937) used for ITC (human) (P63010 700-937): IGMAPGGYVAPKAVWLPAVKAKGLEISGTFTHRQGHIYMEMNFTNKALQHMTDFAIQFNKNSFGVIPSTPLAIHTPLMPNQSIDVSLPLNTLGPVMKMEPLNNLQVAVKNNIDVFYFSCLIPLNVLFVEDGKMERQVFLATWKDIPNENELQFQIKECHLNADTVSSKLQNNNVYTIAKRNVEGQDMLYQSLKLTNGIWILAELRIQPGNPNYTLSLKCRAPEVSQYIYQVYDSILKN

epsinR peptide registered a Kd in experiment [1] of 80 µM.
As for “human β2-appendage (700–937) used for ITC (from UniProt P63010) Y888V”, in experiment [2], the Kd was 77 µM.
